Among the data in patent CN107081136A are OD450 values, retold here.

Test [1] has as its target Myc-GST融合蛋白 (Myc-GST fusion protein). Nature of the test: ELISA, Myc-GST coated at 5 μg/mL, HRP anti-His secondary antibody, heat-stability test at 80℃.
Test [2] shares this target. Kind of test: ELISA, Myc-GST coated at 5 μg/mL, HRP anti-His secondary antibody, heat-stability test at 70℃.
For test [3] the target is unchanged. Kind of test: ELISA, Myc-GST coated at 5 μg/mL, HRP anti-His secondary antibody, heat-stability test at 90℃.

B1: 抗c-Myc标签单域重链抗体 (anti-c-Myc tag single-domain heavy-chain antibody) (VHH, not shown: small tags and cut ends)
VHH: QLQLVESGGGLVQPGGSLRLSCTVSGFPLDNYAIGWLRQAPGKEREGVACISNRGGRTDYVDSVRGRFTISRDNAKKTVYLQMHNLKPEDTGIYYCVAPEMFRPCKLSSEDVRHWGHGTQVTVSS
For B1, the OD450 stood at 1.3 OD450 in test [1], 1.5 OD450 in test [2] and 1.2 OD450 in test [3].
